Assay results taken from PMC9802395, “Intratumoral nanobody–IL-2 fusions that bind the tumor extracellular matrix suppress solid tumor growth in mice” (PNAS Nexus, 2022).

B1: LMJ1.2G (VHH)
VHH: QVQLVETGGGLVQAGGSLRLSCAASGSTFSHSAGGWYRQAPEKQRELVAGIGSDGNINYADSVKDRFTISRDNASNTMYLQMNNLKPEDTAVYVCNIRGSYGNTYYSRWGQGTQVTVSS
B2: LMJ1.3J (VHH)
VHH: QVQLVGTGGGLVQAGGSLRLSCAASGSTFSHSAGGWYRQAPEKQRELVAGISSAGNINYADSVKDRFTISRDNASNTMYLQMNNLKPEDTAVYVCNIRGSYGNTYYSRWGQGTQVTVSS
B3: LMJ2.5C (VHH)
VHH: QVQLVETGGGLVQAGGSLRLSCAASGSTFSHSAGGWYRQAPEKQRELVAGVRSDGNINYADSVKDRFTISRDNASNTMYLQMNNLKPEDTAVYVCNIRGSYGNTYYSRWGQGIQVTVSS
B4: LMJ2.5J (VHH)
VHH: QVQLVETRGGLVQAGGSLRLSCAVSGSTFSHSAGGWYRQAPEKQRELVAGIGSAGNINYADSVKDRFTISRDNASNTMYLQMNNLKPEDTAVYVCNIRGSYGNTYYSRWGQGTQVTVSS
B5: LMJ2.6A (VHH)
VHH: RVQLVETGGGLVQAGGSLRLSCAVSGRTFSHSAGGWYRQAPEKQRELVAGIRSDGNINYADSVKDRFTISRDNASNTMYLQMNNLKPGDTAVYVCNIRGSYGNTYYSRWGQGTQVTVSS
B6: NJB2-IL2 (NJB2 nanobody fused to murine IL-2) (VHH)
VHH: QVQLVETGGGLVQAGGSLRLSCAASGSTFSHNAGGWYRQAPEKQRELVAGISSDGNINYADSVKDRFTISRDNASNTMYLQMNNLKPEDTAVYVCNIRGSYGNTYYSRWGQGTQVTVSS
notes: glycine–serine (G5S) linker; murine interleukin-2; about 32 kDa; source: HEK293 cells, transfected, purified (TALON; some by SEC)
B7: LMJ1.2C nanobody, biotin-tagged (VHH)
VHH: QVQLVETGGGLVQAGGSLRLSCAASGSTFSHSAGGWYRQAPEKQRELVAGIRSDGNINYADSVKDRFTISRDNASNTMYLQMNNLKPEDTAVYVCNIRGSYGNTYYSRWGQGTQVTVSS
notes: The text says the nanobodies for BLI were purified with C-terminal polyhistidine tags; source: E. coli WK6, periplasm, purified (Ni-NTA), then sortase-tagged with biotin; not shown: LPETG sortase motif, C-terminal, kept; His6, C-terminal, cleaved
B8: LMJ2.5I nanobody, biotin-tagged (VHH)
VHH: RVQLVETGGGLVQAGGSLRLSCAVSGSTFSHSAGGWYRQAPEKQRELVAGIRSDGNINYADSVKDRFTISRDNASNTMYLQMNNLKPEDTAVYVCNIRGSYGNTYYSRWGQGAQVTVSS
notes: as for B7
B9: NJT6-IL2 (NJT6 nanobody fused to murine IL-2) (VHH)
VHH: QVQLVETGGDLVQPGGSLRLSCAASGLTLDYYAIGWVRQAPGKEREGVSCITPQDGNTYYDDSVMGRFTILRDNAKNMVYLQMNNLKPEDTAVYFCAAAGALTLDPSEYEYWGQGTQVTVSS
notes: glycine–serine (G5S) linker; murine interleukin-2; size-matched control; also called untargeted IL-2; source: HEK293 cells, transfected, purified (TALON; some by SEC)

These binders were tested against T1, biotinylated EIIIB (protein fragment of fibronectin splice variant EIIIB) (Homo sapiens (sequence identical in …, UniProt P02751, strain, biotin (ChromaLink NHS-biotin reagent))) (assay: not given). Settings: not given.
Target sequence in this assay (P02751 1266-1356, change not shown): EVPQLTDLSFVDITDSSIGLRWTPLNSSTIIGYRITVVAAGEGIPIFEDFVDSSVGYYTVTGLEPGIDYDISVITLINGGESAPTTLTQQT
B1: binds.
B2: binds.
B3: binds.
B4: binds.
B5: binds.

The binders below were run against T1, biotinylated EIIIB (protein fragment of …) (assay: BLI; biotinylated EIIIB immobilised on streptavidin tips (2 μg/mL); nanobody or IL-2 fusion as analyte, 0.1 to 350 nM; PBS with 0.05% Tween-20 and 1% recombinant human albumin; 1:1 binding model, global fit, double referencing). Settings: both partners purified.
B6 showed a Kd of 2 nM.
B7 showed a Kd of 0.3 nM.
B8 showed a Kd of 0.025 nM.
B9: no binding (tested: 100 nM).
